Read-outs that look alike come from different tables or passages of the source. Positions of bridges follow the written chain, without caps; N, C: chain ends. Non-standard residues stand in square brackets, D forms with d. Primed or numbered codes have the meaning given here. No end group written: not given here. *: point of attachment. FITC = O=C1OC2(c3ccc(O)cc3Oc3cc(O)ccc32)c2ccc(NC(=S)*)cc21; FITC″ = Lys(FITC) = N6-fluorescein-thiocarbamoyl-L-lysine; trimesoyl″ = benzene-1,3,5-tricarbonyl scaffold; FITC′ = fluorescein isothiocyanate, on Lys NZ; Phe(3,4-F2) = N[C@@H](Cc1ccc(F)c(F)c1)C(=O)O; Phe(4-Cl) = N[C@@H](Cc1ccc(Cl)cc1)C(=O)O; Phe(4-F) = N[C@@H](Cc1ccc(F)cc1)C(=O)O; 2Nal = N[C@@H](Cc1ccc2ccccc2c1)C(=O)O; trimesoyl = benzene-1,3,5-tricarbonyl; Nle = CCCC[C@H](N)C(=O)O; Dap = NC[C@H](N)C(=O)O; Sar = CNCC(=O)O
Legend:
[1] = target: T1, Recombinant TNFα containing an N-terminal 13-aa ybbR tag (human, UniProt P01375 77-233, biotin at the ybbR tag in the ELISA assays); test: FA, FITC-peptide + TNFα titration
T1 construct: Expressed in E. coli; Same construct used unlabelled (FA) and biotinylated on NeutrAvidin (ELISA); also called tumor necrosis factor-alpha; human TNFα; not shown: N-terminal 13-aa ybbR tag
T1 sequence (P01375 77-233): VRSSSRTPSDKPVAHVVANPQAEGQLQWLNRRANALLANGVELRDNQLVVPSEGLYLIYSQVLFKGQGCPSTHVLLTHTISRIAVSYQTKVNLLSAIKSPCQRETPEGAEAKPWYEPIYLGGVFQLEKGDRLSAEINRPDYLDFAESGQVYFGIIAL
Method: (§1) The FA values were measured on a Molecular Devices Spectramax M5 spectrofluorimeter, with excitation and emission wavelengths at 485 and 525 nm, respectively. Equilibrium dissociation constants (KD) were determined by plotting the FA values as a function of TNFα concentration and fitting the data to the following equation $$Y = \frac{\left(Amin + \left(Amax \times \frac{Q_b}{Q_f} - Amin\right)\left(\frac{(L+x+K_d) - \sqrt{((L+x+K_d)^2 - 4Lx)}}{2L}\right)\right)}{\left(1 + \left(\frac{Q_b}{Q_f} - 1\right)\left(\frac{(L+x+K_d) - \sqrt{((L+x+K_d)^2 - 4Lx)}}{2L}\right)\right)}$$
(§2) where Y is the measured anisotropy at a given TNFα concentration x; L is the bicyclic peptide concentration; Qb/Qf is the correction fact for dye-protein interaction; Amax is the maximum anisotropy when all the peptides are bound to TNFα, while $Amin$ is the minimum anisotropy. […] The FA values were plotted against the competitor peptide concentration to determine the IC$50$ values.

[2] = target: T1, Recombinant TNFα containing an …; test: FA, FITC-peptide + TNFα titration; remark: listed apart in the source
Method: as §1, §2

[3] = target: T1, Recombinant TNFα containing an …; test: FA
Method: as §1, §2

Binder	Kd [1]	Kd [2]	other results
[Nle]Y[dS]K[2Nal][dH]G[dK]H[Dap]K(FITC)-NH2 (linker N-4-10 via trimesoyl″) [C1-36]	1300 nM		
[Nle]Y[dS][Dap]Y[dF]G[dK]H[Dap]K(FITC′)-NH2 (linker (positions not given here) via trimesoyl″; not fully specified (N-terminus, bridges)) [C1-21]		5900 nM	
[Nle]Y[dS]KY[dH][Sar][dK]H[Dap]K(FITC)-NH2 (linker N-4-10 via trimesoyl″) [C1-43]		330 nM	fold effect on affinity against Gly-7 [3]: 2 fold
GY[dA]KY[dF]G[dK]H[Dap]K(FITC′)-NH2 (bridge N-4-10 via trimesoyl″; not fully specified (N-terminus)) [C1-1]		7100 nM	fold decrease in TNFα binding against C1 (Phg at position-1) [3]: ≥ 5 fold
RY[dA]KY[dF]G[dK]H[Dap]K(FITC′)-NH2 (bridge (positions not given here) via trimesoyl″; not fully specified (N-terminus, bridges)) [C1-10]			fold decrease in TNFα binding against C1 (Phg at position-1) [3]: ≥ 5 fold
NY[dA]KY[dF]G[dK]H[Dap]K(FITC″)-NH2 (linker N-4-10 via trimesoyl) [C1-9]		7900 nM	fold decrease in TNFα binding against C1 (Phg at position-1) [3]: ≥ 5 fold
SY[dA]KY[dF]G[dK]H[Dap]K(FITC)-NH2 (linker N-4-10 via trimesoyl″) [C1-6]		6200 nM	fold decrease in TNFα binding against C1 (Phg at position-1) [3]: ≥ 5 fold
DY[dA]KY[dF]G[dK]H[Dap]K(FITC″)-NH2 (linker N-4-10 via trimesoyl) [C1-8]		7000 nM	fold decrease in TNFα binding against C1 (Phg at position-1) [3]: ≥ 5 fold
TY[dA]KY[dF]G[dK]H[Dap]K(FITC″)-NH2 (linker N-4-10 via trimesoyl) [C1-7]		7200 nM	fold decrease in TNFα binding against C1 (Phg at position-1) [3]: ≥ 5 fold
[Nle]Y[dS]K[Phe(4-F)][dH]G[dK]H[Dap]K(FITC)-NH2 (linker N-4-10 via trimesoyl″) [C1-33]	760 nM		
[Nle]Y[dS]KW[dH]G[dK]H[Dap]RK(FITC)-NH2 (linker N-4-10 via trimesoyl″, C1-35 core with R11 as printed) [C1-53]			fold reduction in affinity against C1-35 [3]: > 40 fold
[Nle][Phe(4-F)][dS]KY[dF]G[dK]H[Dap]K(FITC′)-NH2 (bridge (positions not given here) via trimesoyl″; not fully specified (N-terminus, bridges)) [C1-23]	1200 nM		
[Nle][Phe(4-F)][dS]KY[dQ]G[dK]H[Dap]K(FITC)-NH2 (linker N-4-10 via trimesoyl″) [C1-37]	1300 nM		
[Nle][Phe(4-F)][dS]KY[dH]G[dK]H[Dap]K(FITC)-NH2 (linker (positions not given here) via trimesoyl″; not fully specified (bridges)) [C1-39]	1700 nM		
[Nle][Phe(4-Cl)][dS]KY[dH]G[dK]H[Dap]K(FITC)-NH2 (linker N-4-10 via trimesoyl″) [C1-40]	4100 nM		
[Nle][Phe(4-Cl)][dS]KY[dF]G[dK]H[Dap]K(FITC)-NH2 (linker N-4-10 via trimesoyl″) [C1-24]	4800 nM		
[Nle][Phe(3,4-F2)][dS]KY[dF]G[dK]H[Dap]K(FITC)-NH2 (linker N-4-10 via trimesoyl″) [C1-25]	5400 nM		

Binder	Kd [1]	Kd [2]	other results
[Nle]Y[dS]KY[dF]G[dK]H[Dap]K(FITC′)-NH2 (bridge N-4-10 via trimesoyl″; not fully specified (N-terminus)) [C1-11]	1500 nM	1500 nM	fold reduction in affinity against D-Ala at position-3 [3]: ~2 fold
[Nle]Y[dS]KW[dH]G[dK]F[Dap]K(FITC)-NH2 (linker N-4-10 via trimesoyl″) [C1-50]		7500 nM	fold reduction in affinity against His at position-9 [3]: ~30 fold
[Nle]Y[dS]KY[dQ]G[dK]H[Dap]K(FITC)-NH2 (linker N-4-10 via trimesoyl″) [C1-32]	1300 nM		
[Nle]Q[dS]KY[dF]G[dK]H[Dap]K(FITC)-NH2 (linker N-4-10 via trimesoyl″) [C1-28]	4300 nM		
[Nle]Y[dS]KW[dH]V[dK]H[Dap]K(FITC)-NH2 (linker N-4-10 via trimesoyl″) [C1-46]		880 nM	fold loss of binding against Gly-7 [3]: 3 to 6 fold
[Nle]L[dS]KY[dF]G[dK]H[Dap]K(FITC)-NH2 (linker N-4-10 via trimesoyl″) [C1-27]	3700 nM		
[Nle]Y[dS]KY[dH]G[dK]H[Dap]K(FITC)-NH2 (linker N-4-10 via trimesoyl″) [C1-30]	760 nM	760 nM	fold improvement in affinity against D-Phe at position-6 [3]: ~2 fold
[Nle]Y[dS]KW[dH]L[dK]H[Dap]K(FITC)-NH2 (linker N-4-10 via trimesoyl″) [C1-47]		1700 nM	fold loss of binding against Gly-7 [3]: 3 to 6 fold
[Nle]Y[dS]KY[dL]G[dK]H[Dap]K(FITC)-NH2 (linker N-4-10 via trimesoyl″) [C1-31]	2500 nM		
[Nle]H[dS]KY[dF]G[dK]H[Dap]K(FITC)-NH2 (linker N-4-10 via trimesoyl″) [C1-26]	2100 nM		
[Nle]Y[dS]KY[dH]A[dK]H[Dap]K(FITC)-NH2 (linker N-4-10 via trimesoyl″) [C1-44]		320 nM	fold effect on affinity against Gly-7 [3]: 2 fold
[Nle]W[dS]KY[dH]G[dK]H[Dap]K(FITC)-NH2 (linker N-4-10 via trimesoyl″) [C1-41]	430 nM		
[Nle]F[dS]KY[dF]G[dK]H[Dap]K(FITC′)-NH2 (linker (positions not given here) via trimesoyl″; not fully specified (N-terminus, bridges)) [C1-22]	1700 nM		
[Nle]Y[dS]KW[dH]S[dK]H[Dap]K(FITC)-NH2 (linker N-4-10 via trimesoyl″) [C1-45]		420 nM	fold effect on affinity against Gly-7 [3]: 2 fold
[Nle]Y[dS]KY[dY]G[dK]H[Dap]K(FITC)-NH2 (linker N-4-10 via trimesoyl″) [C1-29]	2000 nM		
[Nle]Y[dA]KY[dF]G[dK]H[Dap]K(FITC)-NH2 (linker N-4-10 via trimesoyl″) [C1-5]		850 nM	fold better binding against C1 [3]: ~2 fold
[Nle]Y[dS]K[Phe(4-Cl)][dH]G[dK]H[Dap]K(FITC)-NH2 (linker N-4-10 via trimesoyl″) [C1-34]	1600 nM		
